These results are taken from US20230002466A1 (ELPIS BIOPHARMACEUTICALS, published 2023).

Broadly, the EC50 is the concentration giving half of the maximal effect. A higher EC50 goes with weaker potency. As usually defined, the Kd is the constant that tells how readily two partners part at equilibrium. One may read the koff as the first-order rate constant of dissociation. A word on the kon: it is the rate constant with which the complex forms.

In experiment [1] the target is T1, human IL2Rα Fc fusion protein (human, UniProt P01589 22-213, limits assumed).
T1 construct: also called Recombinant Fc-tagged human IL2Rα; not shown: Fc
T1 sequence (looked up): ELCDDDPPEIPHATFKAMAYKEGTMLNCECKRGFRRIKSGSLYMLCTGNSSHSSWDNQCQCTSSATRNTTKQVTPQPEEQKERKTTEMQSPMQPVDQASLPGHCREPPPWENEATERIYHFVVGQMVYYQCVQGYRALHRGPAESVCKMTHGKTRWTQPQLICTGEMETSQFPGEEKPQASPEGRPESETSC
The experiment in a line: ELISA, receptor-Fc coated, anti-Flag HRP. In a few lines: (§1)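 Plates coated overnight at 4 C with IL2Rα or IL2Rβ Fc fusion at 2 ug/mL, then blocked. Flag-tagged IL2 mutant dilutions were added in duplicate, and binding was detected with anti-Flag HRP (1:5000) and TMB for 5 min. EC50 was fitted from OD450.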

Experiment [2] deals with T2, human IL2Rβ Fc fusion protein (human, UniProt P14784 27-239).
T2 construct: also called Recombinant Fc-tagged human IL2Rβ; not shown: Fc
T2 sequence (looked up): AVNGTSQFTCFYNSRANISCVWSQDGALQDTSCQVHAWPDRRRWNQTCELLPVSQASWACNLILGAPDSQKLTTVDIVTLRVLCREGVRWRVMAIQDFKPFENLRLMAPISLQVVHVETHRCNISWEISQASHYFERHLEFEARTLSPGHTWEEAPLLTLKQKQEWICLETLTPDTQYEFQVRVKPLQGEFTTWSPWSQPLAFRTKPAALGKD
Kind of experiment: ELISA, receptor-Fc coated, anti-Flag HRP. The method in brief:
as §1
Background: In an ELISA, binding on a coated surface is turned into a signal by an enzyme label.

Experiment [3] has as its target T1, human IL2Rα Fc fusion protein. Kind of experiment: ELISA, Fc-tagged receptor coated, anti-HisTag-HRP. As for the experimental part:
(§2) Recombinant Fc-tagged human IL2Rα and IL2Rβ were added in 25 uL of 1×PBS to wells of 384-well plate and incubated overnight at 4° C. to coat the plates. Plates were washed three times with 0.05% Tween20/1×PBS. Plates were blocked with 100 uL of SuperBlock for 1 hr at RT and then washed 3 times with 0.05% Tween20/1×PBS. IL2 mutants were diluted in 0.05% Tween 20/1×PBS from 1000 nM to 0 nM and added to plates for 2 hrs at room temperature. Plates were then washed 6 times with 0.05% Tween20/1×PBS. Anti-HisTag-HRP was diluted 1:5000 in 0.05% Tween20/1×PBS and added to plates for 1 hr at RT. Plates were then washed 6 times with 0.05% Tween 20/1×PBS, and TMB was added to develop blue color. Reactions were stopped with 2N […] and light absorbance at 450 nm was read on a BioTek plate reader.

Experiment [4] has as its target T2, human IL2Rβ Fc fusion protein. The experiment in a line: ELISA, Fc-tagged receptor coated, anti-HisTag-HRP. As for the experimental part: as §2
For experiment [5], the target named is T3, human IL2Rβ (human, UniProt P14784 27-239).
T3 construct: also called IL2β; CD122
T3 sequence (looked up): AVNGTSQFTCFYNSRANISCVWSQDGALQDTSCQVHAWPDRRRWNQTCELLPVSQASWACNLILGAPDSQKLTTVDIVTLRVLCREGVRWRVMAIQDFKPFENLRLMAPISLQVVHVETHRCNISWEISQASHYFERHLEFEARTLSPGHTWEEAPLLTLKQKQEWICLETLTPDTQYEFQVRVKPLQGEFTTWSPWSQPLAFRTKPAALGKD
The experiment in a line: SPR, IL2Rβ captured on Protein A chip, steady state affinity fitting. As for the experimental part: (§3) The assay was run with Biacore T200 control software version 2.0. For each cycle, 1 ug/mL of human IL2Rβ was captured for 60 seconds at flow rate of 10 uL/min on flow cell 2 in 1×HBSP buffer on Protein A sensor chip. 100 nM of HIS and Flag tag purified each IL2 mutant was 2-fold serial diluted and injected onto both reference flow cell 1 and IL2Rβ captured flow cell 2 for 150 seconds at flow rate of 30 uL/min followed by washing for 300 seconds. The flow cells were then regenerated with Glycine pH2 for 60 seconds at a flow rate of 30 uL/min. The assay was set up with 8 serial diluted concentration points in 96-well format. The kinetics data was analyzed with Biacore T200 evaluation software 3.0. The specific binding response unit was derived from subtraction of binding to reference flow cell 1 from target flow cell 2 (FIGS. 16A-16F, Table 10).
(In general: In SPR one partner is held on a chip, and binding of the other changes the refractive index at the surface.)

Experiment [6] has as its target T3, human IL2Rβ. Kind of experiment: SPR, multi-concentration.
For a further experiment, the target named is T4, human IL2Rα (human, UniProt P01589 22-213, limits assumed).
T4 construct: also called IL2α; CD25
T4 sequence (looked up): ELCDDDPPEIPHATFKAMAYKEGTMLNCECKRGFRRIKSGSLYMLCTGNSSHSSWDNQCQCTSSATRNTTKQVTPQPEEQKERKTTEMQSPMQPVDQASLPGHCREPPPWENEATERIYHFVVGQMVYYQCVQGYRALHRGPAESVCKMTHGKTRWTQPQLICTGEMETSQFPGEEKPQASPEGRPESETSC
The experiment in a line: SPR (Biacore T200), human IL2Rα, one trace per clone drawn, concentrations not printed (Example 13).

Experiment [7] has as its target T1, human IL2Rα Fc fusion protein. Kind of experiment: ELISA, single point, Fc-tagged human IL2Rα coated, anti-His-HRP; concentration not printed (Example 14). The procedure:
as §2

For experiment [8], the target named is T3, human IL2Rβ. The experiment in a line: SPR, IL2Rβ captured on Protein A chip. As for the experimental part: as §3
Experiment [9] has as its target T3, human IL2Rβ. The experiment in a line: SPR, single concentration.
The target in experiment [10] is T5, recombinant His-tagged human IL2Rβ (human, UniProt P14784 27-239).
T5 construct: also called hIL2Rβ; not shown: His tag
T5 sequence (looked up): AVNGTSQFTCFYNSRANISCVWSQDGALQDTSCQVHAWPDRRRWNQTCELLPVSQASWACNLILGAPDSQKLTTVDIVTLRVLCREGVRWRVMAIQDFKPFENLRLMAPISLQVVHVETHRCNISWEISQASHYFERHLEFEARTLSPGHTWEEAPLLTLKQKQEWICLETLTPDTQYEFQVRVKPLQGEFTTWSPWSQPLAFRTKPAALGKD
The experiment in a line: SPR (Biacore T200): Fc fusion captured on anti-hFc chip, IL2Rβ-HIS injected in 2-fold dilutions from 100 nM. The procedure: Binding kinetics of monovalent IL2Rβ Fc fusion proteins have been analyzed by SPR technology with Biacore T200. Briefly, anti-hFc antibody was immobilized on flow cell 1 and 2. For each cycle, 1 ug/mL of IL2 Fc fusion protein was captured for 60 seconds at flow rate of 10 ul/min on flow cell 2 in 1×HBSP buffer on anti-hFc immobilized chip. 100 nM IL2Rα-HIS tagged or IL2Rβ-HIS tagged was 2-fold serial diluted and injected onto both reference flow cell 1 and IL2 Fc fusion protein were captured at flow cell 2 for 150 seconds at flow rate of 30 ul/mins. 300 seconds wash was applied after the last injection. The assay was set up with 8 serial diluted concentration points in 96 well format. The kinetics data was analyzed with Biacore T200 evaluation software 3.0. The specific binding response unit was derived from subtraction of binding to reference flow cell 1 from target flow cell 2 (FIGS. 39A-39D).

B1: EP252 (ligand)
chain: APTSSSTKKTQLQLEHLLLDLQMILNGINNYKNPKLTRMLTFKFYMPKKATELKHLQCLEEELKPLEEVLNLAQSKNFHLTPRDAIDNIRVIVQELKGSETTFMCEYADETATIVEFLNRWITFCQSIISTLT
notes: not shown: His and Flag tags
Take B1: the EC50 in experiment [1] was 13 nM; in experiment [2] it was 2.2 nM; in experiment [3], 13.8 nM; in experiment [4], 24.5 nM. In the experiment with human IL2Rβ [5], this molecule registered a Kd of 9.11 nM.

B2: EP339 (ligand)
chain: APTSSSTKKTQLQLEHLLLDLQMILNGINNYKNPLLTDMLTRKFYMPKKATELKHLQCLEEELKPLEEVLNLAQSKNFHLTPRDAIDNIRVIVQELKGSETTFMCEYADETATIVEFLNRWITFCQSIISTLT
notes: not shown: His and Flag tags
Consider B2, for which the Kd with human IL2Rβ [6] amounted to 35.9 nM. In experiment [4], the EC50 was found to be 96.3 nM. Also, the binding result (with human IL2Rα; in experiment [7]) was “no binding (tested: not printed)” throughout.

B3: EP258 (ligand)
chain: APTSSSTKKTQLQLEHLLLDLQMILNGINNYKNPKLTRMLTFKFYMPKKATELKHLQCLEEELKPLEEVLNLAQSKNFHLTARDAISNINVIIQELKGSETTFMCEYADETATIVEFLNRWITFCQSIISTLT
notes: not shown: His and Flag tags
For the molecule B3, in the experiment with human IL2Rβ [8], the Kd was 8.81 nM. In the experiment with human IL2Rβ [8], this molecule gave a koff of 0.0301 s⁻¹. This molecule yielded a kon in the experiment with human IL2Rβ [8] of 3.42e+06 M⁻¹ s⁻¹. Further, the EC50 came to 2.5 nM in experiment [1], 6.5 nM in experiment [2], 9.1 nM in experiment [3] and 119 nM in experiment [4].

B4: EP340 (ligand)
chain: APTSSSTKKTQLQLEHLLLDLQMILNGINNYKNPLLTDMLTRKFYMPKKATELKHLQCLEEELKPLEEVLNLAQSKNFHLTPRDAIDNIRVIILELKGSETTFMCEYADETATIVEFLNRWITFCQSIISTLT
notes: not shown: His and Flag tags
As for B4, a half-maximal effect in experiment [4] (EC50) was put at 185 nM. In addition, the binding result (with human IL2Rα; in experiment [7]) was “no binding (tested: not printed)” throughout.

B5: EP338 (ligand)
chain: APTSSSTKKTQLQLEHLLLDLQMILNGINNYKNPLLTDMLTRKFYMPKKATELKHLQCLEEELKPLEEVLNLAQSKNFHLTARDAISNINVIIQELKGSETTFMCEYADETATIVEFLNRWITFCQSIISTLT
notes: not shown: His and Flag tags
Molecule B5 had a Kd in the experiment with human IL2Rβ [6] of 38.3 nM. In experiment [4], the EC50 amounted to 105 nM. Moreover, the binding result (with human IL2Rα; in [7]) was “no binding (tested: not printed)” each time.

B6: EP253 (ligand)
chain: APTSSSTKKTQLQLEHLLLDLQMILNGINNYKNPKLTRMLTFKFYMPKKATELKHLQCLEEELKPLEEVLNLAQSKNFHLTPRDAIDNIRVIILELKGSETTFMCEYADETATIVEFLNRWITFCQSIISTLT
notes: not shown: His and Flag tags
In the case of B6, the EC50 in experiment [1] was found to be 48.5 nM; in experiment [2], 4.8 nM; in experiment [3], 8.9 nM; in [4] it was 52.8 nM. Besides, the Kd with human IL2Rβ [5] turned out to be 29.5 nM.

B7: EP349 (ligand)
chain: APTSSSTKKTQLQLEHLLLDLQMILNGINNYKNPKLTRMLTAKFYMPKKATELKHLQCLEEELKPLEEVLNLAQSKNFHLTARDAIDNINVIVQELKGSETTFMCEYADETATIVEFLNRWITFSQSIISTLTGSHHHHHH
As for B7, the Kd with human IL2Rβ [9] was 2.79 nM. The molecule also returned a half-maximal effective concentration (EC50) in experiment [4] of 948 nM.

B8: EP345 (ligand)
chain: APTSSSTKKTQLQLEHLLLDLQMILNGINNYKNPKLTVMLTFKFSMPKKATELKHLQCLEEELKPLEEVLNLAQSKNFHLTARDAIDNINVIVQELKGSETTFMCEYADETATIVEFLNRWITFSQSIISTLTGSHHHHHH
In the experiment with human IL2Rβ [9], B8 gave a Kd of 12.5 nM. The molecule further returned an EC50 in experiment [4] of 152 nM.

B9: EP214/EP215 (Fc fusion)
chain: APTSSSTKKTQLQLEHLLLDLQMILNGINNYKNPKLTEMLTFKFYMPKKATELKHLQCLEEELKPLEEVLNLAQSKNFHLTARDAVDNMRVIIQELKGSETTFMCEYADETATIVEFLNRWITFSQSIISTLTESKYGPPCPPCPAPEFEGAPSVFLFPPKPKDTLMISRTPEVTCVVVDVSQEDPEVQFNWYVDGVEVHNAKTKPREEQFQSTYRVVSVLTVLHQDWLNGKEYKCKVSNKGLPSSIEKTISKAKGQPREPQVYTLPPCQEEMTKNQVSLWCLVKGFYPSDIAVEWESNGQPENNYKTTPPVLDSDGSFFLYSALTVDKSRWQEGNVFSCSVMHEALHNHYTQKSLSLSLGK
Fc: ESKYGPPCPPCPAPEFEGAPSVFLFPPKPKDTLMISRTPEVTCVVVDVSQEDPEVQFNWYVDGVEVHNAKTKPREEQFQSTYRVVSVLTVLHQDWLNGKEYKCKVSNKGLPSSIEKTISKAKGQPREPQVCTLPPSQEEMTKNQVSLSCAVKGFYPSDIAVEWESNGQPENNYKTTPPVLDSDGSFKLVSRLTVDKSRWQEGNVFSCSVMHEALHNHYTQKSLSLSLGK
Consider B9, for which, in [10], the Kd came to 5.79 nM, the koff stood at 0.00883 s⁻¹ and the kon came out at 1.53e+06 M⁻¹ s⁻¹.
